*1 amine or outer side, *2 acyl side, *3 side chain or, on linkers, in order; H or OH if unused. Where no end group is shown, it is not given here. Side-chain parts run from the residue outwards. [ ]: non-standard residue; d: D form. The star is where a group is joined. C20 diacid = O=C(O)CCCCCCCCCCCCCCCCCCC(=O)*; C18 diacid = O=C(O)CCCCCCCCCCCCCCCCC(=O)*; C16 diacid = O=C(O)CCCCCCCCCCCCCCC(=O)*; γGlu = O=C(O)[C@H](CCC(=O)[*:2])N[*:1]; C14 diacid = O=C(O)CCCCCCCCCCCCC(=O)*; Desaminohistidyl = O=C(CCc1c[nH]cn1)*; Ac4c = NC1(C(=O)O)CCC1; AEEA = NCCOCCOCC(=O)O; Aib = CC(C)(N)C(=O)O

As a reminder, the IC50 is the concentration needed to halve the response being measured. A high value points to weaker potency.

The target of experiment [1] is T1, human GLP-1 receptor (human, UniProt P43220 24-463).
T1 construct: whole, on cells; reporter assay on whole cells
The experiment can be described thus: SPA displacement of [125I]GLP-1(7-36)NH2 from hGLP-1R BHK membranes. How it is done:
The GLP-1 receptor binding of each derivatives were determined with competitive binding, displacing [¹²⁵I]GLP-1 bound to GLP-1 receptors expressed in cell membranes associated with wheat germ agglutinin (WGA) scintillation proximity assay (SPA) beads. Each derivative was added in a series of concentrations to isolated membranes comprising the human GLP-1 receptor and displacement of the labelled radioligand was monitored. The receptor binding was reported as the concentration at which half of the labelled ligand is displaced from the receptor, the IC⁵⁰ value.
1. For the receptor binding assay 50 μl of the assay buffer was added to each well of an assay plate. [0588] 2. Test compounds were serially diluted to give the following concentrations: 8×10EE-7 M, 8×10EE-8 M, 8×10EE-9 M, 8×10EE-10 M, 8×10EE-11 M, 8×10EE-12 M and 8×10EE-13 M. Twenty-five μl were added to appropriate wells in the assay plate. [0589] 3. Cell membrane aliquots were thawed and diluted to their working concentration. Fifty μl were added to each well in the assay plate. [0590] 4. WGA SPA beads were suspended in assay buffer at 20 mg/ml. The suspension was diluted to 10 mg/ml in assay buffer just prior to addition to the assay plate. Fifty μl were added to each well in the assay plate. [0591] 5. […] A 25 μl aliquot was reserved for measuring total counts/well. [0592] 6. The assay plate was incubated for 2 h at 30° C. [0593] 7. The assay plate was centrifuged for 10 min. [0594] 8. The assay plate was read in a Perkin Elmer TopCount NXT instrument.
Background: Loss of bound radioactivity is the signal in a displacement assay; it reports binding, not function.

The target in experiment [2] is T2, human glucagon receptor (human, UniProt P47871 26-477). The experiment can be described thus: cell-based or functional assay.
The target in experiment [3] is T1, human GLP-1 receptor. The experiment can be described thus: cell-based or functional assay.
In experiment [4] the target is T2, human glucagon receptor. The experiment can be described thus: SPA displacement of [125I]-glucagon from human glucagon receptor BHK membranes. How it is done:
1. For the receptor binding assay 50 μl of the assay buffer was added to each well of an assay plate. [0603] 2. Test compounds were serially diluted to give the following concentrations: 8×10EE-7 M, 8×10EE-8 M, 8×10EE-9 M, 8×10EE-10 M, 8×10EE-11 M, 8×10EE-12 M and 8×10EE-13 M. Twenty-five μl were added to appropriate wells in the assay plate. [0604] 3. Cell membrane aliquots were thawed and diluted to their working concentration. Fifty μl were added to each well in the assay plate. [0605] 4. WGA SPA beads were suspended in assay buffer at 20 mg/ml. The suspension was diluted to 10 mg/ml in assay buffer just prior to addition to the assay plate. Fifty μl were added to each well in the assay plate. [0606] 5. […] A 25 μl aliquot was reserved for measuring total counts/well. […] 6. The assay plate was incubated for 2 h at 25° C. [0608] 7. The assay plate was centrifuged for 10 min at 1500 rpm. [0609] 8. The assay plate was read in a Perkin Elmer TopCount NXT instrument.

T2 sequence (P47871 26-477): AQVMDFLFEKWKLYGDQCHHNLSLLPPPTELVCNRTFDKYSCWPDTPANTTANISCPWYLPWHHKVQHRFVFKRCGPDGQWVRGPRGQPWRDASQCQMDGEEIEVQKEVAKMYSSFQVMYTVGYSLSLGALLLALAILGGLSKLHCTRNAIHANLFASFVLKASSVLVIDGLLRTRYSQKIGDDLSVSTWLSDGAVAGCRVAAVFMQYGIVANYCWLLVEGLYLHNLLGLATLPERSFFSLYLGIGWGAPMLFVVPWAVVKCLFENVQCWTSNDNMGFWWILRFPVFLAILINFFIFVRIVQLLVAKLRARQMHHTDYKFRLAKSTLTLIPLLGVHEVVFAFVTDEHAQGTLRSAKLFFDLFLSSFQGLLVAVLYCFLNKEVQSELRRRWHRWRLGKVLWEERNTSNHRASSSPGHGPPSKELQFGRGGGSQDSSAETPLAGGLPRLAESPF

B1: N^ε34-[(4S)-4-carboxy-4-[[(4S)-4-carboxy-4-[[(4S)-4-carboxy-4-[[(4S)-4-carboxy-4-(17-carboxyheptadecanoylamino)butanoyl]amino]butanoyl]amino]butanoyl]amino]buta … (peptide)
peptide: [Desaminohistidyl][Aib]HGTFTSDVSKYLEEQAAREFIAWLLK([γGlu-γGlu-γGlu-γGlu-C18 diacid])T-NH2
SMILES: CC[C@H](C)[C@H](NC(=O)[C@H](Cc1ccccc1)NC(=O)[C@H](CCC(=O)O)NC(=O)[C@H](CCCNC(=N)N)NC(=O)[C@H](C)NC(=O)[C@H](C)NC(=O)[C@H](CCC(N)=O)NC(=O)[C@H](CCC(=O)O)NC(=O)[C@H](CCC(=O)O)NC(=O)[C@H](CC(C)C)NC(=O)[C@H](Cc1ccc(O)cc1)NC(=O)[C@H](CCCCN)NC(=O)[C@H](CO)NC(=O)[C@@H](NC(=O)[C@H](CC(=O)O)NC(=O)[C@H](CO)NC(=O)[C@@H](NC(=O)[C@H](Cc1ccccc1)NC(=O)[C@@H](NC(=O)CNC(=O)[C@H](Cc1c[nH]cn1)NC(=O)C(C)(C)NC(=O)CCc1c[nH]cn1)[C@@H](C)O)[C@@H](C)O)C(C)C)C(=O)N[C@@H](C)C(=O)N[C@@H](Cc1c[nH]c2ccccc12)C(=O)N[C@@H](CC(C)C)C(=O)N[C@@H](CC(C)C)C(=O)N[C@@H](CCCCNC(=O)CC[C@H](NC(=O)CC[C@H](NC(=O)CC[C@H](NC(=O)CC[C@H](NC(=O)CCCCCCCCCCCCCCCCC(=O)O)C(=O)O)C(=O)O)C(=O)O)C(=O)O)C(=O)N[C@H](C(N)=O)[C@@H](C)O
For the molecule B1, the IC50 amounted to 0.3 nM in experiment [1] and 4.2 nM in experiment [4]. Besides, in experiment [2], the “EC50 GlucagonR [pM], CRE luciferase reporter gene assay” value (“EC50 GlucagonR [pM]” below) amounted to 44 pM. The “EC50 GLP-1R [pM], CRE luciferase reporter gene assay” value (“EC50 GLP-1R [pM]” below) in experiment [3] is 7 pM.

B2: N^ε34-[(4S)-4-carboxy-4-[[2-[2-[2-[[2-[2-[2-[[(4S)-4-carboxy-4-[[(4S)-4-carboxy-4-(17-carboxyheptadecanoylamino)butanoyl]amino]butanoyl]amino]ethoxy]ethoxy]acet … (peptide)
peptide: [Desaminohistidyl][Aib]HGTFTSDVSKYLEARAAREFIAWLLKGGG
modifications: not fully specified (residue 28); printed as Nε34-[(4S)-4-carboxy-4-[[2-[2-[2-[[2-[2-[2-[[(4S)-4-carboxy-4-[[(4S)-4-carboxy-4-(17-carboxyheptadecanoylamino)butanoyl]amino]butanoyl]amino]ethoxy]ethoxy]acetyl]amino]ethoxy]ethoxy]acetyl]amino]butanoyl]-[Imp7,Aib8,His9,Lys18,Ala22,Arg23,Arg26,Leu33,Gly36]-GLP-1-(7-37)-peptide
For B2, the IC50 in experiment [1] was 0.3 nM; in experiment [4] it was 3.7 nM. Also, the “EC50 GlucagonR [pM]” value in experiment [2] amounted to 39.4 pM. Also, the “EC50 GLP-1R [pM]” value in experiment [3] was found to be 2.2 pM.
In the case of [Desaminohistidyl][Aib]HGTFTSDVSRYLEGRAAREFIAWLLK([γGlu-γGlu-AEEA-γGlu-γGlu-C18 diacid])GSG, the half-inhibitory concentration (IC50) in experiment [1] amounted to 1.7 nM; in experiment [4] it was 11.4 nM. For the same molecule, in experiment [2], the “EC50 GlucagonR [pM]” value was 158 pM. Besides, in experiment [3], the “EC50 GLP-1R [pM]” value was 6 pM.
On to [Desaminohistidyl][Aib]HGTFTSDVSRYLEGRAAREFIAWLLK([γGlu-γGlu-AEEA-γGlu-γGlu-C18 diacid])GAG, for which the IC50 in experiment [1] was 1 nM; in experiment [4] it was 18.8 nM. Also, the “EC50 GlucagonR [pM]” value in experiment [2] was determined as 248 pM. The “EC50 GLP-1R [pM]” value in experiment [3] worked out at 3 pM.
[Desaminohistidyl][Aib]HGTFTSDVSKYLEEQAAREFIAWLLK([Ado-Ado-γGlu-γGlu-C14 diacid])T-NH2: the half-maximal inhibitory concentration (IC50) in experiment [1] amounted to 1.5 nM; in experiment [4] it was 3.7 nM. Moreover, in experiment [2], the “EC50 GlucagonR [pM]” value amounted to 52.6 pM. Besides, the “EC50 GLP-1R [pM]” value in experiment [3] came to 12 pM.
[Desaminohistidyl][Aib]HGTFTSDVSKYLEEQAAREFIAWLLK([Ado-Ado-γGlu-γGlu-C18 diacid])T-NH2: the IC50 in experiment [1] was found to be 0.5 nM; in experiment [4] it was 4.3 nM. Besides, the “EC50 GlucagonR [pM]” value in experiment [2] came to 120 pM. Besides, the “EC50 GLP-1R [pM]” value in experiment [3] turned out to be 5.2 pM.
[Desaminohistidyl][Aib]HGTFTSDVSKYLEEQAAREFIAWLLK([Ado-Ado-γGlu-γGlu-C16 diacid])T-NH2: the IC50 in experiment [1] was found to be 1.3 nM; in experiment [4], 4 nM. Moreover, in experiment [2], the “EC50 GlucagonR [pM]” value came to 46.1 pM. Besides, the “EC50 GLP-1R [pM]” value in experiment [3] stood at 60.7 pM.
Consider [Desaminohistidyl][Ac4c]HGTFTSDVSKYLEEQAAREFIAWLLK([Gly-Ser-Glu-Gly-Ser-γGlu-γGlu-C18 diacid])T-NH2, for which the values for the IC50 in experiment [1] and in experiment [4] were 0.1 nM and 4.1 nM, respectively. Moreover, in experiment [2], the “EC50 GlucagonR [pM]” value was 40 pM. In addition, the “EC50 GLP-1R [pM]” value in experiment [3] turned out to be 5 pM.
For [Desaminohistidyl][Aib]HGTFTSDVSKYLEEQAAREFIAWLLK([Ado-Ado-γGlu-γGlu-C20 diacid])T-NH2 the same measures were 0.4 nM, 10.1 nM, 917 pM and 62.9 pM.
Regarding [Desaminohistidyl]GHGTFTSDVSRYLEEQAAREFIAWLLK([Gly-Ser-Glu-Gly-Ser-γGlu-γGlu-C18 diacid])T-NH2, the values for the IC50 in experiment [1] and in experiment [4] were 3.2 nM and 9.6 nM, respectively. Besides, the “EC50 GlucagonR [pM]” value in experiment [2] was 459 pM. For the same molecule, the “EC50 GLP-1R [pM]” value in experiment [3] is 8 pM.

B3: N^ε34-[2-[[(2S)-2-[[(4S)-4-carboxy-4-[[(4S)-4-carboxy-4-(17-carboxyheptadecanoylamino)butanoyl]amino]butanoyl]amino]-3-hydroxypropanoyl]amino]acetyl]-[Imp7,Aib8 … (peptide)
peptide: [Desaminohistidyl][Aib]HGTFTSDVSKYLEEQAAREFIAWLLK([Gly-Ser-γGlu-γGlu-C18 diacid])T-NH2
SMILES: CC[C@H](C)[C@H](NC(=O)[C@H](Cc1ccccc1)NC(=O)[C@H](CCC(=O)O)NC(=O)[C@H](CCCNC(=N)N)NC(=O)[C@H](C)NC(=O)[C@H](C)NC(=O)[C@H](CCC(N)=O)NC(=O)[C@H](CCC(=O)O)NC(=O)[C@H](CCC(=O)O)NC(=O)[C@H](CC(C)C)NC(=O)[C@H](Cc1ccc(O)cc1)NC(=O)[C@H](CCCCN)NC(=O)[C@H](CO)NC(=O)[C@@H](NC(=O)[C@H](CC(=O)O)NC(=O)[C@H](CO)NC(=O)[C@@H](NC(=O)[C@H](Cc1ccccc1)NC(=O)[C@@H](NC(=O)CNC(=O)[C@H](Cc1c[nH]cn1)NC(=O)C(C)(C)NC(=O)CCc1c[nH]cn1)[C@@H](C)O)[C@@H](C)O)C(C)C)C(=O)N[C@@H](C)C(=O)N[C@@H](Cc1c[nH]c2ccccc12)C(=O)N[C@@H](CC(C)C)C(=O)N[C@@H](CC(C)C)C(=O)N[C@@H](CCCCNC(=O)CNC(=O)[C@H](CO)NC(=O)CC[C@H](NC(=O)CC[C@H](NC(=O)CCCCCCCCCCCCCCCCC(=O)O)C(=O)O)C(=O)O)C(=O)N[C@H](C(N)=O)[C@@H](C)O
As for B3, the IC50 in experiment [1] was 0.2 nM; in experiment [4], 4.3 nM. In experiment [2], the “EC50 GlucagonR [pM]” value was 45 pM. In experiment [3], the “EC50 GLP-1R [pM]” value stood at 7 pM.

The values above are taken from patent US20160102129A1 (Novo Nordisk, published 2016).
